Measurements from article PMC10936626 (Autophagy, 2023).

Target: GST-tagged SRC, bacterially purified (human, UniProt P12931-1 1-536)
Assay: pull-down

B1: Flag-tagged MEF2D protein purified from HEK293T cells (natural protein, human, UniProt Q14814-1 1-521, looked up)
chain: MGRKKIQIQRITDERNRQVTFTKRKFGLMKKAYELSVLCDCEIALIIFNHSNKLFQYASTDMDKVLLKYTEYNEPHESRTNADIIETLRKKGFNGCDSPEPDGEDSLEQSPLLEDKYRRASEELDGLFRRYGSTVPAPNFAMPVTVPVSNQSSLQFSNPSGSLVTPSLVTSSLTDPRLLSPQQPALQRNSVSPGLPQRPASAGAMLGGDLNSANGACPSPVGNGYVSARASPGLLPVANGNSLNKVIPAKSPPPPTHSTQLGAPSRKPDLRVITSQAGKGLMHHLTEDHLDLNNAQRLGVSQSTHSLTTPVVSVATPSLLSQGLPFSSMPTAYNTDYQLTSAELSSLPAFSSPGGLSLGNVTAWQQPQQPQQPQQPQPPQQQPPQPQQPQPQQPQQPQQPPQQQSHLVPVSLSNLIPGSPLPHVGAALTVTTHPHISIKSEPVSPSRERSPAPPPPAVFPAARPEPGDGLSSPAGGSYETGDRDDGRGDFGPTLGLLRPAPEPEAEGSAVKRMRLDTWTLK
binding result: binds
